For the first test, the target named is FITC-labeled CurA leader (Corynebacterium urealyticum DSM 7109). Nature of the test: fluorescence polarisation. A general note: In fluorescence polarisation assays a small probe gives low polarisation when free and higher when bound to something large.
Regarding CurC D18A (natural protein), the Kd (as a rule, the free concentration of one partner at which half of the binding sites on the other are occupied at equilibrium, for simple one-to-one binding) is 3300 nM.

CurC E25A (natural protein) gave a Kd of 4300 nM. In the case of CurC E36A (natural protein), the Kd amounted to 3100 nM. Regarding CurC I75A (natural protein), the Kd worked out at 66000 nM. In turn, CurC Q21A (natural protein) gave a Kd of 8000 nM. This Kd is about 8.2-fold lower than that of the substance before. CurC R68A (natural protein): the Kd is 79000 nM. In turn, CurC Y31A (natural protein) came in with a Kd above 150000 nM.

The target of the next test is FITC-labeled HcaA leader peptide (Bacillus sp. Al Hakam). Nature of the test: fluorescence polarisation.
HcaF D38A (natural protein) showed a Kd of 77 nM. In turn, HcaF E76A (natural protein) registered a Kd of 250 nM. With HcaF E79A (natural protein), the Kd is 75 nM. In turn, HcaF I80A (natural protein) displayed a Kd of 500 nM. HcaF N72A (natural protein): the Kd came to 79 nM. On the same count and under the same terms, the result for HcaF R73A (natural protein) reads above 10000 nM.

For another test, the target named is FITC-labeled BalhA1 leader peptide (Bacillus sp. Al Hakam). Nature of the test: fluorescence polarisation.
As to BalhC D23A (natural protein), the Kd stood at 50000 nM. BalhC D32A (natural protein) gave a Kd of 21000 nM. Against the preceding substance, the Kd is about 2.4-fold lower. As for BalhC E66A (natural protein), the Kd was 60000 nM.

As for BalhC H38A (natural protein), the Kd was determined as 21000 nM. Turning to BalhC K20A (natural protein), the Kd is 52000 nM. The substance BalhC wild-type (natural protein) registered a Kd of 10000 nM. Against the preceding substance, the Kd is about 5.2-fold lower.

A further test deals with FITC-labeled StmA leader peptide (Streptomonospora alba). Nature of the test: fluorescence polarisation.
StmE D68A (natural protein) came in with a Kd of 38 nM. As for StmE D69A (natural protein), the Kd is 2600 nM. StmE D75A (natural protein) registered a Kd of 35 nM. This Kd is about 74-fold lower than that of the substance before. The substance StmE N22A (natural protein) had a Kd of 410 nM.

In turn, StmE Q76A (natural protein) registered a Kd of 75 nM. Same read-out and setting: with StmE V12A (natural protein) the figure was 160 nM. In turn, StmE Y28A (natural protein) had a Kd of 28 nM. Regarding StmE wild-type (natural protein), the Kd was found to be 35 nM.

The record behind these values is paper PMC4509860.
